This note sets out measurements from paper PMC6736072 (Nucleic Acids Research, 2019).

This experiment has as its target T1, His-MAD1 (recombinant, not phosphorylated by ULK1) (human, UniProt Q9Y6D9 1-718).
T1 sequence: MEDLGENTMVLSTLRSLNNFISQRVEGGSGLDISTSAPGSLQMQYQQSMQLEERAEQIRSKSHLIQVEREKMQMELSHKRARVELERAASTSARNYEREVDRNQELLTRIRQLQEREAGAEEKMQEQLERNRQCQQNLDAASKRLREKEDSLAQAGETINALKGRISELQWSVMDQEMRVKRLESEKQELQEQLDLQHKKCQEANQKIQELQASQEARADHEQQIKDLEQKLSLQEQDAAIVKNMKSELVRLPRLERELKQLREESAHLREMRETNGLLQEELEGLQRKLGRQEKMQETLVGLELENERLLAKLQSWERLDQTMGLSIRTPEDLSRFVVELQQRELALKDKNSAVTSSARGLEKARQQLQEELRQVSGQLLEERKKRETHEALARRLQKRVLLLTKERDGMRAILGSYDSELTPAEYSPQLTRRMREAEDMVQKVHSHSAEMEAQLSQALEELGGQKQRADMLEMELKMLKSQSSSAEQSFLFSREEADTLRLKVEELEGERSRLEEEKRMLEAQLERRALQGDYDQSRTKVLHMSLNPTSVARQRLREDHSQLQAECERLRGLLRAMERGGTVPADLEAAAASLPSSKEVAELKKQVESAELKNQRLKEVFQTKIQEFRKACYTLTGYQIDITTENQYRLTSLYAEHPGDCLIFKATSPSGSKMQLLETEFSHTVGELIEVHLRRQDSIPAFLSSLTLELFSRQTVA
As to the kind of experiment: pull-down.

B1: human FLAG-BUB1-(437-509), phosphorylated in vitro (domain or fragment)
chain: SFHTTPNTSLGMVQATPSKVQPSPTVHTKEALGFIMNMFQAPTLPDISDDKDEWQSLDQNEDAFEAQFQKNVR
B1: the binding result is listed as “binds”.
